Tested on: activated recombinant MAP kinase
Assay: Phosphorylation of GFP Erk sensors by MAP kinase, ^32P incorporation
Format: biochemical
Settings: 10 μM substrate, 100 ng MAP kinase, 30 minutes at 30° C.; mean ± standard deviation of triplicates
Excerpt: Experiments were terminated and samples processed as described previously in subsection D.4. Results presented in Table X represent means of triplicate determinations ±standard deviations of ^32P-incorporation in washed pellets as described earlier.

B1: Myelin Basic Protein: a well-characterized substrate of Erk kinase (protein, UniProt P02687 1-169, looked up)
Myelin basic protein: AAQKRPSQRSKYLASASTMDHARHGFLPRHRDTGILDSLGRFFGSDRGAPKRGSGKDGHHAARTTHYGSLPQKAQGHRPQDENPVVHFFKNIVTPRTPPPSQGKGRGLSLSRFSWGAEGQKPGFGYGGRASDYKSAHKGLKGHDAQGTLSKIFKLGGRDSRSGSPMARR
In the case of B1, the “^32P-Incorporation (CPM)” value is reported as 33361 ± 477 CPM.

Source: US20080166749A1, “Fluorescent Protein Sensors of Post-Translational Modifications” (INVITROGEN CORPORATION, priority 1998, published 2008)
